One experiment has as its target T1, SorCS1 (Mus musculus, UniProt Q9JLC4).
T1 construct: host or cells: COS-7
T1 sequence (Q9JLC4 34-1167): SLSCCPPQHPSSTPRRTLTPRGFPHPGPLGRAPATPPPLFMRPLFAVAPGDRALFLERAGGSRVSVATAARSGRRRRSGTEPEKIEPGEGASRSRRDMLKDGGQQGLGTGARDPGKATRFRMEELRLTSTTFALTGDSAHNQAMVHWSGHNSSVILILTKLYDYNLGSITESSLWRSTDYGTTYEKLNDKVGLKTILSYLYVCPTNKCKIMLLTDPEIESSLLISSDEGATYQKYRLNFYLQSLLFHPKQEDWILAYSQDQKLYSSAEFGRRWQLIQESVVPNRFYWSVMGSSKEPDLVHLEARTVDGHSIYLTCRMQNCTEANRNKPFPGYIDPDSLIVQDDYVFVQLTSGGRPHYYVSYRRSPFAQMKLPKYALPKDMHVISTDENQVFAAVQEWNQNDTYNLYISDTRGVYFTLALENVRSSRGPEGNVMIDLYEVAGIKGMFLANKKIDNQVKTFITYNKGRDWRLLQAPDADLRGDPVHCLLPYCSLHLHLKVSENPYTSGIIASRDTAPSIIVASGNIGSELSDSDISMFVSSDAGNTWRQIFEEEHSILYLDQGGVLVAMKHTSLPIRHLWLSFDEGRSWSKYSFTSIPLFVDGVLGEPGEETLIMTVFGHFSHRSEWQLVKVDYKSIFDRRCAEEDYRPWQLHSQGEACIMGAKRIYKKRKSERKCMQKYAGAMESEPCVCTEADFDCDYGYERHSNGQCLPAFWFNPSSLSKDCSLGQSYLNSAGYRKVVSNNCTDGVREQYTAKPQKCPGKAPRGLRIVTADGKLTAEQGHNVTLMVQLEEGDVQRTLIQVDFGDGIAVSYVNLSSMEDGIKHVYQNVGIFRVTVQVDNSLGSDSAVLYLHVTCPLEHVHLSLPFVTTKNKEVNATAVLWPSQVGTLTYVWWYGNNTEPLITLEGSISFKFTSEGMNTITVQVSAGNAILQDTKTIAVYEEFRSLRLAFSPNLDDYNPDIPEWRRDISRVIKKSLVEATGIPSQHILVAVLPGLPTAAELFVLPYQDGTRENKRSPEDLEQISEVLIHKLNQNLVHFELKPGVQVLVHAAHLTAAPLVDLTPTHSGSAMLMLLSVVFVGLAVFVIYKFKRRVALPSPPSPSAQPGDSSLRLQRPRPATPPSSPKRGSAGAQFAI
Kind of experiment: AP-PGRN binding to COS-7 cells expressing SorCS1. The settings on record: 120 nM AP-PGRN. From the text:
(§1) The human SorLA expression vector was provided by Anders Nykjaer, M.D., Ph.D., Aarhus University, Aarhus, Denmark (Jacobsen, L., et al., J. Biol. Chem. 276:22788-22796 (2001); Gliemann, J., et al., Biochem J. 381:203-212 (2004); GenBank Accession No. U60975), and the mouse SorCS1 expression vector in pCMV-Sport6 was obtained from Open Biosystems (GenBank Accession No. BC007486). […] A fragment of PGRN, termed PGRN-E in the literature, binds to sortilin with the same affinity as does full length PGRN (data not shown).

Experiment [1] addresses T2, sortilin-1 (Sort1; PGRN-R) (Mus musculus, UniProt Q6PHU5).
T2 construct: host or cells: COS-7 (ATCC No. CRL-1651)
T2 sequence (Q6PHU5 74-825): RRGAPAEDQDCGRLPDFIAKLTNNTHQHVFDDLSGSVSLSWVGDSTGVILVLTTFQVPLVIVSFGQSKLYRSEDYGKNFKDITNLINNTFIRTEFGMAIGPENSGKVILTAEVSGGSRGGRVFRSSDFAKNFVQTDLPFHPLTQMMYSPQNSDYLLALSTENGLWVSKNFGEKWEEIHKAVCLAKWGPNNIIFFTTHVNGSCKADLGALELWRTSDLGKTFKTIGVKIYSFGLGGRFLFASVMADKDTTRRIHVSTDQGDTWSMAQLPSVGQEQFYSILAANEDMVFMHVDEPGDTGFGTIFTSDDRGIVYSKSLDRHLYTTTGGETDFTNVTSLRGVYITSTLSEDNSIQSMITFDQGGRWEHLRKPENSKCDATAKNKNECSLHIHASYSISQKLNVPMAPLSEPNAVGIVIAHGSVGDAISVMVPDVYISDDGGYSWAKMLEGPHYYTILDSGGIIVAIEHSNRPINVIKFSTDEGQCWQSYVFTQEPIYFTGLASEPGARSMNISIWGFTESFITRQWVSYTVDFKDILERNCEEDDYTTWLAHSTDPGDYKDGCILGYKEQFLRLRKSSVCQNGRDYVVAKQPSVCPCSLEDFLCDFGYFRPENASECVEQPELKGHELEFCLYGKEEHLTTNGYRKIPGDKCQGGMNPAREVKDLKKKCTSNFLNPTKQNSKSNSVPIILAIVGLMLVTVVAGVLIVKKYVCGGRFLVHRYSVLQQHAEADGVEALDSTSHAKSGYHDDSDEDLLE
As to the kind of experiment: AP-PGRN binding to COS-7 cells transfected with Sort1 cDNA. How it is done:
(§2) Rat (Sprague-Dawley) cortical neurons were isolated from E18 embryos and cultured in vitro for 3-21 days. Cultures were maintained in Neurobasal-A medium supplemented with B27, GLUTAMAX™ (2 mM), sodium pyruvate (1 mM), penicillin, and streptomycin. The binding of 10 nM AP-PGRN or 10 nM AP was detected as a dark reaction product produced by alkaline phosphatase (AP). Binding was measured as follows. The AP tagged ligand (in NBA) was incubated with the cortical neurons for 1 hr at 4° C., washed three times with HBH buffer, fixed with formaldehyde, and after washing again with HBH the neurons were incubated in a 67° C. oven to inactivate the endogenous AP. The tagged AP was then visualized using AP substrate 5-bromo-4-chloro-3-indolyl phosphate/nitro blue tetrazolium, which results in a dark precipitate. […] The addition of 100 nM Flag-PGRN displaced 10 nM AP-PGRN (FIG. 1C, middle panel).
To determine the molecular nature of the neuronal binding site of PGRN, expression cloning experiments utilizing AP-PGRN as a tagged ligand were conducted. COS-7 (ATCC No. CRL-1651) cells were transfected with expression vectors containing mouse cDNAs using FUGENE® 6 according to manufacturer's specifications (Roche). […]

Experiment [2] concerns mouse E17 cortical neurons. As to the kind of experiment: AP-PGRN binding to mouse cortical neurons (wild type, sortilin +/- and -/-). The method, then:
as §2
Binding was measured according to the methods described above by preincubating 100 nM PGRN with the cortical neurons for 1 hr and using a 5 nM AP-PGRN and 100 nM untagged PGRN mixture. […]
Gene-targeted sortilin −/− and +/− mice from Anders Nykjaer, M.D., Ph.D., Aarhus University, Aarhus, Denmark, were used to obtain cultures of cortical neurons. The binding of 2 nM AP-PGRN to cortical neurons isolated from sortilin −/− (FIG. 3B, left panel) and +/− (FIG. 3B, right panel) mice was evaluated. […]

For a further experiment, the target named is T3, SorLA (Homo sapiens, UniProt Q92673).
T3 construct: host or cells: COS-7
T3 sequence (Q92673 82-2214): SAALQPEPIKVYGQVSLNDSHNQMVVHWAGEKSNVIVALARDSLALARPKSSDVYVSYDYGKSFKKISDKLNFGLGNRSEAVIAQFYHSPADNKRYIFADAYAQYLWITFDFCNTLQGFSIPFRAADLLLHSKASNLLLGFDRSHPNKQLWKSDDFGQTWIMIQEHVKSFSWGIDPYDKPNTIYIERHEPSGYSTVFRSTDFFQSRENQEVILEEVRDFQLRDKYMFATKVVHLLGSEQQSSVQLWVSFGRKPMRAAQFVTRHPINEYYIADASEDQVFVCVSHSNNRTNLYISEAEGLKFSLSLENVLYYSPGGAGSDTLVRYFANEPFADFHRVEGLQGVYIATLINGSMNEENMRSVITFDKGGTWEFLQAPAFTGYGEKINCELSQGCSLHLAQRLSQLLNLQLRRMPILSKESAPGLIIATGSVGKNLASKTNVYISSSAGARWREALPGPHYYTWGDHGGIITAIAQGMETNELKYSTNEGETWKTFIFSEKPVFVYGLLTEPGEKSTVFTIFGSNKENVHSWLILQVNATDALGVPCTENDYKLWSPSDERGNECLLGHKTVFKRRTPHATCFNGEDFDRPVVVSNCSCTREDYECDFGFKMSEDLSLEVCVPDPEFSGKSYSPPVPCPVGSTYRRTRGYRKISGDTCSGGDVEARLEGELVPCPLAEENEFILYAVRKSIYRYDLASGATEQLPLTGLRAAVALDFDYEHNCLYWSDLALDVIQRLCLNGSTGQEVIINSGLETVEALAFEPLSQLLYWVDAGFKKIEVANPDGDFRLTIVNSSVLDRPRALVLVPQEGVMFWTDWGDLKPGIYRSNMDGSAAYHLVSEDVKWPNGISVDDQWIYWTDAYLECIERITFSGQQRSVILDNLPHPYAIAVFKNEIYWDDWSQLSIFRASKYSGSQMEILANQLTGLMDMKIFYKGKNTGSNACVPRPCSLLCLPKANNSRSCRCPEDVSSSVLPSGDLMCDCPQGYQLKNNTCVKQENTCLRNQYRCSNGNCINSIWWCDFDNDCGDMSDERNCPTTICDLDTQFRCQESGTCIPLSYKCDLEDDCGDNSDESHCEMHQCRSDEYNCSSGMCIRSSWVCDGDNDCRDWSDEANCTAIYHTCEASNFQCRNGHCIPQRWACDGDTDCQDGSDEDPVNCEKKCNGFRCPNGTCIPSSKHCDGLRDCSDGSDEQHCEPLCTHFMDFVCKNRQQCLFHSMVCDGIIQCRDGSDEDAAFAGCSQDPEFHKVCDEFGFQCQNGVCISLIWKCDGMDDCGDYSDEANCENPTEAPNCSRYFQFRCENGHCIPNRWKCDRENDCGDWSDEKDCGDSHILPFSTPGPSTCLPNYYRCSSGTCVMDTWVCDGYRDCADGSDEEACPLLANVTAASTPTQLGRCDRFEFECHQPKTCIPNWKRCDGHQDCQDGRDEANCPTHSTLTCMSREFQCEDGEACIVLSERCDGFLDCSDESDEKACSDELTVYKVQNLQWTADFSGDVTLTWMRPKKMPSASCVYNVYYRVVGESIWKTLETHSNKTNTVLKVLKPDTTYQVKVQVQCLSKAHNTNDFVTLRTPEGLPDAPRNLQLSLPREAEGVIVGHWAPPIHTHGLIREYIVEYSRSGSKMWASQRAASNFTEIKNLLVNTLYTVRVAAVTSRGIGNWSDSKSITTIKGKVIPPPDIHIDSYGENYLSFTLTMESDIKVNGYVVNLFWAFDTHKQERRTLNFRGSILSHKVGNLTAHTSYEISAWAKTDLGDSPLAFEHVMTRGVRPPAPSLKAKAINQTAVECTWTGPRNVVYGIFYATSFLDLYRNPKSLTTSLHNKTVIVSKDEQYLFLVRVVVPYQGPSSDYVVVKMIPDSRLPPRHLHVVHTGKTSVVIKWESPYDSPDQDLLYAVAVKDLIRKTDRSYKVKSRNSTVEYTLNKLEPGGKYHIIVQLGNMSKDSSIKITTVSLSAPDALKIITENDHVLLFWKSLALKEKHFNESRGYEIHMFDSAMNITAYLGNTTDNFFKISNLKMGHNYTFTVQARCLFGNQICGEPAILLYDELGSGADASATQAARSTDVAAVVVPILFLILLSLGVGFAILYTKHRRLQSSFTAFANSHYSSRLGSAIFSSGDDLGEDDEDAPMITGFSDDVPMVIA
Kind of experiment: AP-PGRN binding to COS-7 cells expressing SorLA. The settings on record: 120 nM AP-PGRN.
Text: as §1

Experiment [3] relates to COS-7 cells transfected with empty vector. As to the kind of experiment: AP-PGRN binding to COS-7 cells transfected with empty vector. The settings on record: 20 nM AP-PGRN. The method, then: To determine the molecular nature of the neuronal binding site of PGRN, expression cloning experiments utilizing AP-PGRN as a tagged ligand were conducted. COS-7 (ATCC No. CRL-1651) cells were transfected with expression vectors containing mouse cDNAs using FUGENE® 6 according to manufacturer's specifications (Roche). An arrayed adult mouse brain cDNA library (OriGene) of 225,000 clones was screened in pools of 5,000 at a time, as well as a library consisting of 352 individual preparations of cDNAs encoding transmembrane proteins (GFC-transfection array panel, OriGene). The COS-7 cells that specifically bound AP-PGRN (5 nM) contained a single cDNA clone, which encoded a single-pass, membrane-spanning surface glycoprotein that supports high affinity AP-PGRN binding (FIG. 2A, upper-right panel). […] As in mouse cortical neurons, binding of 5 nM AP-PGRN to Sort-1 (PGRN-R) in COS-7 cells was displaceable by excess untagged PGRN (100 nM) and was saturable, with an apparent Kd of 6 nM (FIG. 2A, lower-right panel, and 2B). The binding affinity of AP-PRGN measured for Sort1-transfected COS-7 cells and for neurons was indistinguishable, with a Kd of 5-10 nM (FIG. 2B, 6 nM, and data not shown). In both cases, unlabeled 100 nM PGRN displaced binding (FIG. 2A, lower-right panel, and FIG. 3A, right panel).

Experiment [4] relates to Rat (Sprague-Dawley) cortical neurons. Kind of experiment: AP-tagged ligand binding to cultured rat cortical neurons. How it is done: as §2
Experiment [5] has as its target T4, purified ectodomain of Sort1 (amino acids 60-725 of the human sequence) (Homo sapiens, UniProt Q99523).
T4 sequence (Q99523 60-725): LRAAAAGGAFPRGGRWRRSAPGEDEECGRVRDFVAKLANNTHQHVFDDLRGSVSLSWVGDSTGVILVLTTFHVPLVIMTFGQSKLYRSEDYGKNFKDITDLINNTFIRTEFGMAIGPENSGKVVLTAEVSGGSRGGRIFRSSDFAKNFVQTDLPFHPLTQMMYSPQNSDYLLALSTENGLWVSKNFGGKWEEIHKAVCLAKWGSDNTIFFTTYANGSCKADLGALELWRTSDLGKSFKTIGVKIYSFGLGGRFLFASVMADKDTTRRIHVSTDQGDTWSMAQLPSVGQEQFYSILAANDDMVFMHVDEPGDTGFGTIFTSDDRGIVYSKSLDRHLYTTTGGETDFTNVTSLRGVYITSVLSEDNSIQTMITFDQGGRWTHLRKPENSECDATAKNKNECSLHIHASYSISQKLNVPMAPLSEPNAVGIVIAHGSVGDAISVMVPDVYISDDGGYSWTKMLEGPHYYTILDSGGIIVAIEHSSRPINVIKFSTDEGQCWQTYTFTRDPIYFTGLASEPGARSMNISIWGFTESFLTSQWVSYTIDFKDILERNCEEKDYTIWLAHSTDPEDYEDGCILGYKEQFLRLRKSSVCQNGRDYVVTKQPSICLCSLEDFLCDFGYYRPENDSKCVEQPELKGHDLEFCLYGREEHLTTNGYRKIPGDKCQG
As to the kind of experiment: Physical complex of purified proteins isolated by affinity chromatography. Type of experiment: binding. The settings on record: data not shown.

In general, Kd refers to the concentration at which binding is half-saturated. As for “AP-PGRN: alkaline-phosphatase (AP) tagged human progranulin fusion protein produced in HEK293T cells”, in the experiment with SorCS1, the “affinity for SorCS1” value is listed as “no affinity”. The “binding to Sort1-transfected COS-7 cells” value in experiment [1] (20 nM ligand) is recorded as “bound”. Besides, the Kd is 5 to 10 nM in experiment [1] (read-out: binding affinity Kd for Sort1-transfected COS-7 cells) and 5 to 10 nM in experiment [2] (neurons, species not stated, data not shown, read-out: binding affinity Kd for neurons). For the same substance, in experiment [2] (2 nM AP-PGRN, neurons from sortilin -/- vs +/- mice), the “AP-PGRN binding in sortilin -/- cortical neurons” value is listed as 30 % of control values. The “affinity for SorLA” value with SorLA was “no affinity”. The “binding to empty-vector COS-7 cells” value in experiment [3] is on record as “did not bind”. In experiment [4] (10 nM AP-tagged ligand, 1 hr at 4° C.), the “binding to cultured cortical neurons (dark AP reaction product)” value is “specifically and discreetly bound”.

For the substance “Flag-PGRN: FLAG-tagged PGRN produced by HEK293T cell transfection, purified by anti-FLAG affinity gel”, the “complex formation with Sort1 ectodomain” value in experiment [5] was “formed a physical complex”. Besides, in experiment [4] (100 nM competitor against 10 nM AP-PGRN), the “displacement of AP-PGRN binding” value is recorded as “displaced”.

These data come from US20120039865A1, “IDENTIFICATION OF SORTILIN AS A NEURONAL RECEPTOR FOR THE FRONTOTEMPORAL DEMENTIA PROTEIN, PROGRANULIN” (Yale University, priority 2008, published 2012).
